According to the nanobody polyreactivity screen of Harvey et al. (2022):

Assay: yeast display, Sf9 membrane polyspecificity reagent, FACS + sequencing; frameworks hold sequencing errors
Summary of the method: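 Genes from sorted yeast were amplified by colony PCR, read by MiSeq 2 × 250 sequencing and filtered on CDR length. These cells carried a synthetic nanobody library in Saccharomyces cerevisiae BJ5465 and were sorted by FACS into low and high (top ~1%) gates on anti-HA and streptavidin fluorescence. Polyreactivity is labelled according to the gate of origin.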

| Sequence | polyreactivity (PSR sort gate) |
| --- | --- |
| QEQLQESRGGLVQAGGSLRMTCAASGYNYLAHTIGWYRQAPGKELEFVASIALGSSTYYTDSVKGSFTISRDNAKTTVYLQKNSQKPEDTAVYYCAARVGASYAHDYWGQGTQVTVSS | low polyreactivity |
| QEQLVESGGGLVQAGGSLRLSCAASGFIFAPYAMGWYSQAPGKDRDLVAAISSSGGSTYYADSVKGRFTISRDNAKNTVYLQMNSLKPEDTAVFYCAARGNFGANPGRKHGFDYWGQGTQVTVSS | low polyreactivity |
| QEQLVQSAGGLVQAGGSLPLSCAASGSIIISNAMGWYRQAPGKERELVAAISRSGARTYYADSVKGRFTISRDNAKNTVYLQMNSLKPEDTAVYSCAVDGYSPYKYDYWGQGTLVTVSS | high polyreactivity |
| QFHLVESGGGLVQAGGSLRLSCAASGSTFWFNVMGWYRQAPGKEREFVAAISSIGGSTYYADSVKGRFTISRDNAKNTVYLQMNSMKPEDTAVYYCAVEVVRVYRYDYWGQGTQVTVTS | low polyreactivity |
| QFHLVESGRDFVQAAGSLLLSCAASASIFRYYTMGWYRQAPGKETELVATITDRGTSTYDADSVKGRFTLSRESV | high polyreactivity |
| QFQHVESGGGLDQARGRLRLSCAASGYTFAKYTMGSYRQAPGKERELVAAISRGGSTTYADSVKGRFTISRDNAKNTVYLQMNSLKPEDTAVYDCAASGTKREDGYSLGYPRAGDYWGQGTQVTVSS | low polyreactivity |
| QFQHVESGGGLVQARGSRRLSCAASGRTLYRNAMGWYRPARGKERELVAAITSGGHTKYADSVKGRFTISRDNAKNTVYLQMNSLKPVDTAVYYCNARYIRYSVGFLYTRYDYCGQGTQVTVSS | high polyreactivity |
| QFQIVESGGGLVQAGGSLRLSCAASGSTFRTNAMGWYRQAPGKERELVARIRYSVGSTYYADSVKGRFTISRDNAKNTVYLQMNSLKPEDTAVYYCAAENQRVGTFREHDSWGQGTQVTVSS | low polyreactivity |
| QFQLEESGGGLVQAGGSLRLSCDASGIIINYYAMGWYRQAPGKERELVAAIRISDTTYYADSVKGRFTISRDNAKNTVYLQMNSLKPEDTAVYYCNTLYYYYYGEVYVRDYDYWGQGTHVTVSS | low polyreactivity |
| QFQLLESGGGLVHAGGSLLLSCAASGSTFVRYAMGWYRQAPAKERELVASISSSGSTYYADSVKGRFTISRDNAKNSDYLQMNSLKPEDTSVYYCAIQYGGRYGYWGQGTQVTVSS | low polyreactivity |
| QFQLLESGGGLVQAGGSLRLSCAASGSIFRSNTMGWSRQAPGKAREFVAAISRRGSRTYADSVKGRFTISRDNAKNTVYLQMNSRKPEDTAVYYCAAERGYQAHPGQGDYWGQGTQVTVSA | high polyreactivity |
| QFQLLESGGGVVHAAGSLRLSCAASGLIFPIYAMGWYRQAPGKERELVAVISSSGGSTNYADSVKGRFTISRDNAKNTVYLQMNSLKPEDTAVYYCAARYLQGRYDYWGQGTQVTVSS | high polyreactivity |
| QFQLVDSGGGLVQAGGSLRLSCAASGLIFFYYAMGWYRQAPGKERELVAAIRTNYADSVKGRFTISRDNAKNTVYLQMNSLKPEDTAVYYCAAESSQTPTSAFDYWGQGTQVTVSS | low polyreactivity |
| QFQLVDSGGGLVQAGGSLRLSCAPSGRIFQIYAMGWYRQAPGKERELVAAISGSTSYADSVKGRFTISRDNAKNTVYLQMISLKPEDTAVYYCAARALLPYGEYWGQGSQVTVSS | low polyreactivity |
| QFQLVESCRGLVQAGGSLRLSCAASGFTFRANGMGWYRQAPGKERELVATITSGGTTNYADSVKGRFTISRDNAKNTVYLQMNSLKREDTAVYYCAKRFGPAYFRLYDYWGQGTQVTVSS | low polyreactivity |
| QFQLVESGGCLVQAGGSLRLSCAASGFTFGYNAMGWYRQAPGKERELVAVITQSGGRTYYADSVKGRFTISRDNAKYTVYVQMNSLKPEDTAVYYCADRYRLPPYYYWGQGSQVTVSS | high polyreactivity |
| QFQLVESGGGFVQAGGSLRLSCAASGRIFKTYMGWYRQAPGKESELVAGITRGGGSTYYADSVKGRFTISRDNAKNTVYLQMNSLKPEDTAVYYCAADAWSSYLDRPFDYWGQGTQVTVSS | high polyreactivity |
| QFQLVESGGGFVQAGGSLRLSCAASGSIFLYNDMGWYRQAPGKERELVPAITSDGSTNYADSVKGRFTISRDNAKNTFYLQMNSLKPEDTAVYYCAADALWFYLNWYYGGTAYGYWGQGTQVTVSS | low polyreactivity |
| QFQLVESGGGIVQAGGSHRVICAASASTFARNAMGWYRQATGKESEFVATISSSGGRTYYADSVKGRFTISRDNAKNTVYLQMNSLKPEDTAVYYCAADYHIVWYEEYSWGQGTQVTVSS | high polyreactivity |
| QFQLVESGGGLDQAGGSLRLSCAASGSTSRKYTMGWYRQAPGTDRELVATISWSGGSTNYADSVKGRFTISRDNAKNTVYLQMNSLKPEDTAVYYCNAYVSPRYRGSRYYYWGQGTQVTVSS | high polyreactivity |
| QFQLVESGGGLFQAGGSLRLSCAAYGRISLRNGMGWYRQAPGKERELVAAISRGGSTYYADSVKGRFTISRDNAKNTVYLQMNSLKPEDTAVYYCNADIRPIYGDDDYWGQSTQVTVSS | low polyreactivity |
| QFQLVESGGGLVQAGGSHRLSCAASGFIFYYYAMGSYRQAPGKERELVAVLTESGSSTYYADSVKGRFTFSRDNAKNTVYLQMNSLKPVDTAVYYCNADFWPYTGKYDYWGQGTQVTVSS | low polyreactivity |

| Sequence | polyreactivity (PSR sort gate) |
| --- | --- |
| QFQLVESGGGLVQAGGSLLLSCAASGTFGVYAMGWYRQAPGKERELVAVITDSGGTNYADSVKGRFTISRDNAKNTVFLQMNSLKPEDTAVYYCNTDAGDYYGENYWGQGTQVTVSS | low polyreactivity |
| QFQLVESGGGLVQAGGSLRISCAASGITLRRNAMGWYRQAPGKEREWVAAISWSGGRTYYADSVKGRFTISRDNAKNTVYLQMNSLKPEDTAVYYCAARGYPLTAFDYWGQGTQVTVSS | high polyreactivity |
| QFQLVESGGGLVQAGGSLRISCAASGRIFYRYAMGWYRPAPGKERELVASIRFSVGSTYYADSVKGRFTISRDNAKNTVYLQMNSLKPEDTAVYYCAADYTKYYRRYYYWGQGTQVTVSS | high polyreactivity |
| QFQLVESGGGLVQAGGSLRLSCAASAGYALGGYRQAPGKERELVAVINYSGGSTYYADSVKGRFTISRDNAKNTVYLQMNSLKPEDTAVYYCAAVYRRRYYWGQGTQVTVSS | high polyreactivity |
| QFQLVESGGGLVQAGGSLRLSCAASGFIFFNYAMGWYRQAPGKERELVASINWSTGSTYADSVKGRFTISRDNAKNTVYLQMNSLKPEDSAVYYCNTDHRRVAIPGGYWGQGTQVTVSS | low polyreactivity |
| QFQLVESGGGLVQAGGSLRLSCAASGFTFAYYAMGWYRQAPGKERELVAAITYSGGSTYYADSVKGRFTISRDNAKNTVYLQMNSLKPEDTAVYDCAAYPSRRRRGDEDDYWGQGTQVTVSS | high polyreactivity |
| QFQLVESGGGLVQAGGSLRLSCAASGFTFEANAMGWYRKAPGKERELVASITRSDGSTHYADSVKGRFTISRDNAKNTVYLLMNRLKPEDTAVYYCAAVPESLTPKKGYGYWGKGTQVTVSS | low polyreactivity |
| QFQLVESGGGLVQAGGSLRLSCAASGFTFRKYAMGWYRQAPGKERELVAAIRSTGRSNYADSVKGRFTISRDNAKNTVYFQMNSLKPVDTAVYYFNVDLTYYYYEVDYWGQGTQVTVSS | high polyreactivity |
| QFQLVESGGGLVQAGGSLRLSCAASGFTFSHNTMGWYIQSPGKEREFVARISGRGVSTSYADSVKGRFTISRDNAKNTVYLQMNCLKPEDTAVYYCNRRVAYLSGYSYDYWGQGTQVTVSS | high polyreactivity |
| QFQLVESGGGLVQAGGSLRLSCAASGFTFYLYAMGWYRQAPGKERELVAAIRGSGGSTYYADSVKGRFTISRDTAKNSVYLQMNSLKPEDTEVYYCAADYKVSASWYYAYTFYYWGQGTQVTVSS | low polyreactivity |
| QFQLVESGGGLVQAGGSLRLSCAASGGIFTDYTMGWYRQAPGKERELVAAITWTGGSTYYADSVKGRFTISRDNAKNTVYLQMNILKPEDTAVYYCAADDYWVNLDYWGQGTQVTVSS | low polyreactivity |
| QFQLVESGGGLVQAGGSLRLSCAASGGTFDPYAMGLYRQAPGKERELVAAINYGGGSTYYADSVKGRFTISRDNAKNTVYLQMNSLKPEDTAVYYCAADGGRLTTSQLAQWEYDYWGQGTQVTVSS | low polyreactivity |
| QFQLVESGGGLVQAGGSLRLSCAASGIIFGRYTKGWYRDAPGKETELVAAITSSGITYYADSVKGRFTISRDNAKNTVYLQMNSLKPEDTAVYYCAADVGYWGRSRGYPSDDYDYWGQGTQVTVSS | low polyreactivity |
| QFQLVESGGGLVQAGGSLRLSCAASGIILRGYAMGWYRQAPGKERELVASISRGGSTNYADSVKGRFTISRDNAKNTVYLQMNSLKPEDTAVYYSNARIWYYGRYQGAYRFDYWGQGTQVTVSS | high polyreactivity |
| QFQLVESGGGLVQAGGSLRLSCAASGINFGRNTMGMYRQAPGKERELVAAIDSGGNTYADSVKGRFTISRDNAKNTVYLQMNSLKPEDTAVYFCAVDGGEFSSYGYWGQGTQVTVSS | low polyreactivity |
| QFQLVESGGGLVQAGGSLRLSCAASGITFSFYAIVWYRQATGKERELVAAINGRGGRTYYADSVKGRFTISRDKAKNTFYLQMNSLKTEDTAVYFCAAVVWRTDYDYWGQGTQVTVSS | low polyreactivity |
| QFQLVESGGGLVQAGGSLRLSCAASGLIFTANAMGWYRQAPGKERELVASITWSGDSTYYADSVKGRFTISRDNAKNTVYLQMNSLKPEDSAVYYCNARPVYTYVTYDGNYWGQGTQVTVSS | low polyreactivity |
| QFQLVESGGGLVQAGGSLRLSCAASGRIFNGNAMGLYRQAPGKERELVAASTSDGSTYADSVKGRFTISRDNAKNTVYLQMNSLKPEDTAVYYCNRDGYTNSRGYEFYYWGQGTQVTVSS | low polyreactivity |
| QFQLVESGGGLVQAGGSLRLSCAASGRIFRRYTMGWYRQAPGKERELVATITWDGVSTYYADSVKGRFTISRDNAKNTVYLQMNSLKPEDTAVYYCNVDVYYYVLSYQYDYWGQGTQVTVSS | high polyreactivity |
| QFQLVESGGGLVQAGGSLRLSCAASGRIFVQYAMGWYRQATGKQTEFVAAISYRGGSTYYADSVKGRFTISRDNSKITVYLPMNSLKPEDTAVYYCAIVFPYRGKVTLDYWVQGTQVTVSS | low polyreactivity |
| QFQLVESGGGLVQAGGSLRLSCAASGRIFVRYAMGLYRKAPGKERELVAAISKSGGSTYYADSVKGRFTISRDNAKNTVYLQMNSLKPEDTAVYYCNALVRRRPGYIRYDYWGQGTQVTVSS | low polyreactivity |
